Results from patent US4285932A, “Enzyme derivatives for use in the treatment of venous thrombosis” (Beecham Group Limited, priority 1978, dated 1981).

B1: 3 Methyl 4-methoxybenzoyl: human plasmin, active site serine blocked by 3-methyl-4-methoxybenzoyl (acylating agent of Example 17) (protein, UniProt P00747 20-580; P00747 581-810, looked up)
Plasmin heavy chain A: EPLDDYVNTQGASLFSVTKKQLGAGSIEECAAKCEEDEEFTCRAFQYHSKEQQCVIMAENRKSSIIIRMRDVVLFEKKVYLSECKTGNGKNYRGTMSKTKNGITCQKWSSTSPHRPRFSPATHPSEGLEENYCRNPDNDPQGPWCYTTDPEKRYDYCDILECEEECMHCSGENYDGKISKTMSGLECQAWDSQSPHAHGYIPSKFPNKNLKKNYCRNPDRELRPWCFTTDPNKRWELCDIPRCTTPPPSSGPTYQCLKGTGENYRGNVAVTVSGHTCQHWSAQTPHTHNRTPENFPCKNLDENYCRNPDGKRAPWCHTTNSQVRWEYCKIPSCDSSPVSTEQLAPTAPPELTPVVQDCYHGDGQSYRGTSSTTTTGKKCQSWSSMTPHRHQKTPENYPNAGLTMNYCRNPDADKGPWCFTTDPSVRWEYCNLKKCSGTEASVVAPPPVVLLPDVETPSEEDCMFGNGKGYRGKRATTVTGTPCQDWAAQEPHRHSIFTPETNPRAGLEKNYCRNPDGDVGGPWCYTTNPRKLYDYCDVPQCAAPSFDCGKPQVEPKKCPGR
Plasmin light chain B: VVGGCVAHPHSWPWQVSLRTRFGMHFCGGTLISPEWVLTAAHCLEKSPRPSSYKVILGAHQEVNLEPHVQEIEVSRLFLEPTRKDIALLKLSSPAVITDKVIPACLPSPNYVVADRTECFITGWGETQGTFGAGLLKEAQLPVIENKVCNRYEFLNGRVQSTELCAGHLAGGTDSCQGDSGGPLVCFEKDKYILQGVTSWGLGCARPNKPGVYVRVSRFVTWIEGVMRNN
modifications: plasmin 3-methyl-4-methoxybenzoyl acylated active site
B2: O-Toloyl: human plasmin, active site serine blocked by o-toluoyl (acylating agent of Example 9) (protein, UniProt P00747 20-580; P00747 581-810, looked up)
Plasmin heavy chain A: B1 Plasmin heavy chain A
Plasmin light chain B: B1 Plasmin light chain B
modifications: plasmin o-toluoyl acylated active site
B3: p-Ethoxybenzoyl: human plasmin, active site serine blocked by p-ethoxybenzoyl (acylating agent of Example 8) (protein, UniProt P00747 20-580; P00747 581-810, looked up)
Plasmin heavy chain A: B1 Plasmin heavy chain A
Plasmin light chain B: B1 Plasmin light chain B
modifications: plasmin p-ethoxybenzoyl acylated active site
B4: 2,4 Dimethoxybenzoyl: human plasmin, active site serine blocked by 2,4-dimethoxybenzoyl (acylating agent of Example 6) (protein, UniProt P00747 20-580; P00747 581-810, looked up)
Plasmin heavy chain A: B1 Plasmin heavy chain A
Plasmin light chain B: B1 Plasmin light chain B
modifications: plasmin 2,4-dimethoxybenzoyl acylated active site
B5: Trans-Cinnamoyl Porcine Plasmin (protein, UniProt P06867 20-579; P06867 580-809, looked up)
Plasmin heavy chain A: DSLDDYVNTQGAFLFSLSRKQVAARSVEECAAKCEAETNFICRAFQYHSKDQQCVVMAENSKTSPIARMRDVVLFEKRIYLSECKTGNGKNYRGTTSKTKSGVICQKWSVSSPHIPKYSPEKFPLAGLEENYCRNPDNDEKGPWCYTTDPETRFDYCDIPECEDECMHCSGEHYEGKISKTMSGIECQSWGSQSPHAHGYLPSKFPNKNLKMNYCRNPDGEPRPWCFTTDPNKRWEFCDIPRCTTPPPTSGPTYQCLKGRGENYRGTVSVTASGHTCQRWSAQSPHKHNRTPENFPCKNLEENYCRNPDGETAPWCYTTDSEVRWDYCKIPSCGSSTTSTEYLDAPVPPEQTPVAQDCYRGNGESYRGTSSTTITGRKCQSWVSMTPHRHEKTPGNFPNAGLTMNYCRNPDADKSPWCYTTDPRVRWEYCNLKKCSETEQQVTNFPAIAQVPSVEDLSEDCMFGNGKRYRGKRATTVAGVPCQEWAAQEPHRHSIFTPETNPRAGLEKNYCRNPDGDDNGPWCYTTNPQKLFDYCDVPQCVTSSFDCGKPKVEPKKCPAR
Plasmin light chain B: VVGGCVSIPHSWPWQISLRHRYGGHFCGGTLISPEWVLTAKHCLEKSSSPSSYKVILGAHEEYHLGEGVQEIDVSKLFKEPSEADIALLKLSSPAIITDKVIPACLPTPNYVVADRTACYITGWGETKGTYGAGLLKEARLPVIENKVCNRYEYLGGKVSPNELCAGHLAGGIDSCQGDSGGPLVCFEKDKYILQGVTSWGLGCALPNKPGVYVRVSRFVTWIEEIMRRN
modifications: plasmin trans-cinnamoyl acylated active site
notes: porcine plasmin acylated with p-amidinophenyl transcinnamate
B6: p-Methyl-t-cinnamoyl: porcine plasmin, active site serine blocked by p-methyl-trans-cinnamoyl (protein, UniProt P06867 20-579; P06867 580-809, looked up)
Plasmin heavy chain A: B5 Plasmin heavy chain A
Plasmin light chain B: B5 Plasmin light chain B
modifications: plasmin p-methyl-trans-cinnamoyl acylated active site
B7: p-Anisoyl: porcine plasmin, active site serine blocked by p-anisoyl; porcine column of Table 1 (protein, UniProt P06867 20-579; P06867 580-809, looked up)
Plasmin heavy chain A: B5 Plasmin heavy chain A
Plasmin light chain B: B5 Plasmin light chain B
modifications: plasmin p-anisoyl acylated active site
B8: p-Fluorobenzoyl: porcine plasmin, active site serine blocked by p-fluorobenzoyl (protein, UniProt P06867 20-579; P06867 580-809, looked up)
Plasmin heavy chain A: B5 Plasmin heavy chain A
Plasmin light chain B: B5 Plasmin light chain B
modifications: plasmin p-fluorobenzoyl acylated active site

Experiments:
Type in all cases: biochemical
[1] = tested on: streptokinase-human plasminogen activator complex; experiment: Deacylation of acylated streptokinase-human plasminogen activator complex to free enzyme; conditions: acyl-activator complex solution; 37° C.
Procedure: (§1) The pseudo-first order rate constant is determined by hydrolysing the enzyme derivative under physiological conditions i.e. in isotonic aqueous media at pH 7.4 and at 37° C. At regular intervals aliquots are withdrawn and incubated with a chromogenic or fluorogenic protease substrate such as S-2251 (H-D-Val-Leu-Lys-p-nitroanilide 2HCl) and the rate of conversion of the substrate measured.
(§2) The hydrolysis is followed until such time as the rate of conversion of substrate reaches a maximum. The rate constant k is then calculated by plotting: […]
(§3) loge (1-^At /Amax) against t
(§4) where Amax the maximum rate at which an aliquot converts substrate and At is the rate at which an aliquot converts substrate at time t.

Human Plasmin = experiment: Deacylation (hydrolysis) of active-site blocked human plasmin, pseudo-first order rate constant followed by regain of activity on chromogenic substrate S-2251; conditions: active site serine substituted human plasmin; pH 7.4, 37° C.
Procedure: as §1, §2, §3, §4

Porcine Plasmin [2] = experiment: Deacylation (hydrolysis) of active-site blocked porcine plasmin, pseudo-first order rate constant followed by regain of activity on chromogenic substrate; conditions: for Deacylation rate, Porcine Plasmin K sec^-1 × 10^4: active site serine substituted porcine plasmin, pH 7.4, 37° C.
Procedure: as §1, §2, §3, §4

Porcine Plasmin [3] = experiment: Residual enzyme activity of blocked porcine plasmin versus original enzyme; conditions: after acylation and dialysis
Procedure: The time for which the reaction is allowed to proceed depends upon the blocking reagent employed, the temperature at which the reaction is carried out and the enzyme selected for blocking. The optimum time period for any particular circumstances may be selected by following the decrease in enzymic activity by incubating aliquots with a chromogenic or fluorogenic substrate.

Molecule | Deacylation rate, Human Plasmin K sec^-1 × 10^4 (Human Plasmin) [sec^-1 × 10^4] | Deacylation rate, Porcine Plasmin K sec^-1 × 10^4 (Porcine Plasmin [2]) [sec^-1 × 10^4] | other results
p-Anisoyl Streptokinase-Human Plasminogen Activator Complex [Example 22] |  |  | pseudo-first order (deacylation) rate constant of regeneration to free enzyme [1]: 0.00027 s⁻¹
3-Methyl p-Anisoyl Streptokinase-human Plasminogen Activator Complex [Example 23] |  |  | pseudo-first order (deacylation) rate constant of regeneration to free enzyme [1]: 0.0001 s⁻¹
B1 | 0.70 |  | 
B2 | 1.71 |  | 
B3 | 1.10 |  | 
B4 | 1.10 |  | 
B5 |  | 4.20 | time for reactivation (Porcine Plasmin [2]; deacylation conditions): two; activity of the derivative relative to the original enzyme (Porcine Plasmin [3]): less than 0.5%
B6 |  | 2.92 | 
B7 | 1.10 | 0.33 | 
B8 |  | 3.30 | 
